Measured values: the supplement of paper PMC10126150
± gives the standard deviation of the averaged measurements.

tested on: ATP; assay: switch fluorescence ratio, 500 uM ATP over buffer (Cy3 cluster intensity, sum of 5 cycles each) (fold (ratio)); higher = stronger signal-on switching upon ATP binding; sequences stand for … in TCGTCGGCAGCGTCAGATGTGTATAAGAGACAGTTTTTTTTTTTTTTTTTTTTTTTTT…TC; settings: aptamer strand: ATP DNA aptamer (quencher-CACCTGGGGGAGTATTGCGGAGGAAGG + anchor), 100 nM annealed; ATP concentration: 500 uM
In short: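 For every switch-domain sequence, the fluorescence ratio is the mean of per-cluster values, each being summed target-cycle Cy3 intensity over summed buffer-cycle Cy3 intensity. Clusters outside 100-1000 RFU were excluded. On a modified Illumina MiSeq flow-cell, the Cy3-labelled switching-strand clusters were annealed to 100 nM quencher-labelled ATP aptamer, imaged in selection buffer and then after 15 min with 500 uM ATP at 22 °C. Five such cycles were run, with NaOH stripping and re-annealing between them.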
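Also: ATP exposure 15 min at 22 °C before imaging.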

Sequence | switch fluorescence ratio
GAGGGCACTG | 0.956 ± 0.023
GAGGGCCAGG | 1.13 ± 0.076
GAGGGCCTGA | 1.01 ± 0.012
GAGGGCGGGG | 1.05 ± 0.077
GAGGGCTAAA | 1.06 ± 0.082
GAGGGCTACT | 1.04 ± 0.041
GAGGGCTTTG | 1 ± 0.031
GAGGGGAAAT | 0.999 ± 0.029
GAGGGGAGAG | 1 ± 0.016
GAGGGGAGCT | 1.01 ± 0.045
GAGGGGAGGC | 1.29 ± 0.39
GAGGGGCACG | 0.935 ± 0.1
GAGGGGCCAG | 0.988 ± 0.027
GAGGGGGATC | 1.02 ± 0.035
GAGGGGGCAA | 1.01 ± 0.016
GAGGGGGGGG | 1.01 ± 0.039
GAGGGGGGTC | 1.04 ± 0.064
GAGGGGGTGG | 1 ± 0.064
GAGGGGTTCT | 0.984 ± 0.043
GAGGGTAATA | 1.01 ± 0.017
GAGGGTAGTT | 1.031 ± 0.0055
GAGGGTCGGG | 0.988 ± 0.033
GAGGGTGGGG | 1.01 ± 0.04
GAGGGTGTCA | 0.995 ± 0.017
GAGGGTTAC | 1.006 ± 0.0062

Sequence | switch fluorescence ratio
GAGGGTTGCT | 1.01 ± 0.036
GAGGTAAAGC | 1 ± 0.08
GAGGTAATC | 1.02 ± 0.037
GAGGTAGAGG | 0.986 ± 0.026
GAGGTAGATG | 0.991 ± 0.0012
GAGGTAGTGG | 0.968 ± 0.027
GAGGTATCAT | 0.9847 ± 0.0073
GAGGTATTTT | 1.34 ± 0.65
GAGGTCGTGA | 0.975 ± 0.019
GAGGTGAAGA | 0.979 ± 0.046
GAGGTGAAGG | 1.04 ± 0.055
GAGGTGAGG | 0.989 ± 0.011
GAGGTGGTAG | 0.951 ± 0.034
GAGGTGGTTA | 0.976 ± 0.015
GAGGTGTAGC | 1.01 ± 0.028
GAGGTGTTTT | 1.01 ± 0.06
GAGGTTACGC | 0.988 ± 0.053
GAGGTTAGCT | 0.976 ± 0.046
GAGGTTAGGT | 0.981 ± 0.01
GAGGTTATAG | 0.998 ± 0.02
GAGGTTATTG | 0.99 ± 0.025
GAGGTTCTAT | 1.0012 ± 0.00094
GAGGTTGTCA | 0.958 ± 0.038
GAGGTTGTG | 1.01 ± 0.025
GAGTAAGTA | 1.002 ± 0.0064

Sequence | switch fluorescence ratio
GAGTAATGCT | 1.27 ± 0.017
GAGTACAAAG | 1.02 ± 0.0041
GAGTACAGCT | 1.01 ± 0.018
GAGTACTGTA | 1.14 ± 0.053
GAGTAGAGGG | 0.954 ± 0.014
GAGTAGCATG | 0.993 ± 0.022
GAGTAGGAGC | 1.02 ± 0.033
GAGTAGGCTA | 0.973 ± 0.035
GAGTAGTGCT | 1.03 ± 0.018
GAGTAGTGGG | 0.982 ± 0.037
GAGTAGTGTT | 0.984 ± 0.02
GAGTAGTTGT | 0.9969 ± 0.0083
GAGTATGAGA | 1.009 ± 0.01
GAGTATTAGG | 1.02 ± 0.0094
GAGTATTTTC | 1.015 ± 0.0065
GAGTCAGAGG | 0.989 ± 0.039
GAGTCAGC | 1.08 ± 0.14
GAGTCAGTAT | 1.03 ± 0.039
GAGTCGAATT | 0.9738 ± 0.0058
GAGTCGGATG | 0.967 ± 0.012
GAGTCTTTGG | 0.973 ± 0.021
GAGTCTTTTG | 1.013 ± 0.0096
GAGTGAATTT | 1.0074 ± 0.00014
GAGTGAGACT | 1.02 ± 0.072
GAGTGATAAG | 1 ± 0.017

Sequence | switch fluorescence ratio
GAGTGCGCTG | 1.02 ± 0.04
GAGTGCGGAT | 0.98 ± 0.026
GAGTGCTATT | 0.981 ± 0.013
GAGTGGAGTG | 1.02 ± 0.079
GAGTGGGATT | 0.981 ± 0.011
GAGTGGGGTT | 1.011 ± 0.0024
GAGTGGGTCG | 0.983 ± 0.024
GAGTGGTAGG | 1.01 ± 0.021
GAGTGTAGTC | 1.06 ± 0.011
GAGTGTCGCC | 0.99 ± 0.021
GAGTGTGATG | 0.97 ± 0.021
GAGTTACATG | 1.02 ± 0.048
GAGTTAGAAG | 0.9657 ± 0.0014
GAGTTAGTCA | 0.975 ± 0.024
GAGTTAGTTG | 0.987 ± 0.093
GAGTTATTGT | 0.9806 ± 0.0095
GAGTTATTTT | 0.976 ± 0.017
GAGTTCGTAA | 1.46 ± 0.15
GAGTTCTTAG | 0.9587 ± 0.0011
GAGTTCTTCA | 0.973 ± 0.015
GAGTTGAGTT | 1.01 ± 0.074
GAGTTGGGTT | 1.01 ± 0.034
GAGTTGTGCC | 1.1 ± 0.032
GAGTTTCATG | 0.963 ± 0.015
GAGTTTGAAA | 0.993 ± 0.041

Sequence | switch fluorescence ratio
GAGTTTGAAT | 0.969 ± 0.021
GAGTTTGTGT | 0.996 ± 0.011
GAGTTTGTTG | 0.985 ± 0.014
GAGTTTTTTT | 0.987 ± 0.033
GATAAACGAT | 1.02 ± 0.031
GATAAAGTGG | 0.995 ± 0.041
GATAAGTCGG | 1.009 ± 0.01
GATAATCTGT | 0.984 ± 0.048
GATAATTGAG | 1.04 ± 0.044
GATAATTTGT | 0.973 ± 0.065
GATACATTAT | 0.998 ± 0.028
GATACCGTGC | 1.18 ± 0.061
GATACCTTTT | 1.13 ± 0.24
GATACGAACG | 1.32 ± 0.043
GATACGAAGT | 0.981 ± 0.028
GATACGGGGA | 0.988 ± 0.029
GATACTGAAC | 1.3 ± 0.024
GATAGACGGT | 1.01 ± 0.047
GATAGAGATT | 0.9961 ± 0.0066
GATAGAGTAG | 1.016 ± 0.0019
GATAGCGGGA | 0.97 ± 0.058
GATAGGGCAA | 1.08 ± 0.075
GATAGGGCTT | 0.994 ± 0.056
GATAGGGTAC | 1.0351 ± 0.0001
GATAGGTGCC | 1.002 ± 0.0027

Sequence | switch fluorescence ratio
GATAGGTTGG | 0.985 ± 0.066
GATAGTTCGC | 1.01 ± 0.015
GATATATATC | 0.9903 ± 0.0054
GATATATGCA | 0.997 ± 0.028
GATATATGGT | 0.9833 ± 0.0077
GATATGGCAC | 1.05 ± 0.042
GATATGTGTT | 1.001 ± 0.0024
GATATGTTCC | 1.13 ± 0.084
GATATGTTTT | 1 ± 0.035
GATATTATGA | 1.01 ± 0.01
GATATTCCTG | 1 ± 0.03
GATATTGGTT | 1.02 ± 0.025
GATATTTGGA | 0.996 ± 0.041
GATATTTTA | 0.9929 ± 0.0069
GATCAGCCCG | 1.016 ± 0.005
GATCAGGGGT | 1.06 ± 0.044
GATCAGGTCT | 0.987 ± 0.032
GATCAGTGTT | 0.9783 ± 0.0093
GATCATAAAA | 1.02 ± 0.017
GATCATAGGG | 1.01 ± 0.018
GATCATCCTG | 1.008 ± 0.0065
GATCCAATGT | 0.993 ± 0.019
GATCCATGCT | 0.9536 ± 0.0019
GATCCGCTGG | 1.11 ± 0.012
GATCCGGGGG | 0.988 ± 0.043

Sequence | switch fluorescence ratio
GATCCTGGGG | 0.974 ± 0.054
GATCGAAACT | 1.01 ± 0.081
GATCGAGACC | 1.024 ± 0.0044
GATCGGATGT | 0.981 ± 0.011
GATCGGGGGG | 0.983 ± 0.041
GATCGGGGTG | 0.965 ± 0.021
GATCGGTGCT | 1 ± 0.015
GATCGTACTT | 1.08 ± 0.015
GATCGTTGTC | 0.988 ± 0.027
GATCGTTTTA | 1 ± 0.022
GATCTAAAAG | 1.03 ± 0.017
GATCTAGGAG | 1.02 ± 0.017
GATCTGGACA | 1.01 ± 0.032
GATCTTCGTT | 1.01 ± 0.041
GATCTTGTTT | 0.976 ± 0.018
GATCTTTCAT | 1 ± 0.018
GATCTTTTTT | 1.02 ± 0.023
GATGAAAAAA | 1.02 ± 0.037
GATGAAAGGC | 1.046 ± 0.0017
GATGAAAGGT | 1.002 ± 0.0047
GATGAAATGT | 0.994 ± 0.015
GATGAATGAC | 1.02 ± 0.016
GATGAATGTC | 1.04 ± 0.13
GATGAATTGC | 1.01 ± 0.033
GATGACAGGG | 1.01 ± 0.12

Sequence | switch fluorescence ratio
GATGAGCCGG | 1 ± 0.027
GATGAGGATG | 0.987 ± 0.014
GATGAGGGGT | 0.986 ± 0.038
GATGATGATG | 1.014 ± 0.0022
GATGATGCTG | 1.03 ± 0.017
GATGATGTAT | 1.01 ± 0.033
GATGATTGGT | 0.998 ± 0.015
GATGATTTTA | 1.02 ± 0.042
GATGCGGTG | 1 ± 0.012
GATGCGGTTA | 0.988 ± 0.031
GATGCGGTTT | 0.994 ± 0.019
GATGCTCCTT | 1.05 ± 0.031
GATGCTCGAG | 1 ± 0.016
GATGCTGGCG | 1.01 ± 0.052
GATGGACCTT | 1.08 ± 0.11
GATGGAGTGT | 0.978 ± 0.018
GATGGAGTTG | 1.013 ± 0.0053
GATGGCCCTT | 0.99064 ± 0.00065
GATGGCTGTG | 1.021 ± 0.01
GATGGGAGGA | 0.9639 ± 0.005
GATGGGAGTG | 1 ± 0.029
GATGGGATTG | 0.966 ± 0.037
GATGGGCTCG | 0.988 ± 0.025
GATGGGGATG | 0.9677 ± 0.0045
GATGGGGATT | 1.04 ± 0.069
